B1: Phage-780 (peptide)
peptide: YCDGHLPEYMRKCL
notes: not shown: fused to the pIII filament protein of the bacteriophage
B2: Phage-775 (peptide)
peptide: YCEGHMSEYMAKCL
notes: as for B1
B3: Phage-786 (peptide)
peptide: YCEGHRSEYMAKCL
notes: as for B1
B4: Phage-748 (peptide)
peptide: YCDGHLNEYMEKCL
notes: tested as crude clonal phage supernatant
B5: Phage-782 (peptide)
peptide: YCEGHSWEYIGKCL
notes: as for B1
B6: Phage-784 (peptide)
peptide: YCDGHTGVYFYKCL
notes: as for B1
B7: Phage-785 (peptide)
peptide: YCEGHTSEYMNKCL
notes: as for B1
B8: Phage-787 (peptide)
peptide: YCDGHLAMYMDKCL
notes: as for B1
B9: Phage-781 (peptide)
peptide: YCEGHSPLYMSKCL
notes: as for B1
B10: Phage-778 (peptide)
peptide: YCEGHSYEYMWKCL
notes: as for B1
B11: Phage-776 (peptide)
peptide: YCDGHSWEYIQKCL
notes: Position 10 is printed as '--' and was read as unchanged (I); not shown: fused to the pIII filament protein of the bacteriophage
B12: Phage-777 (peptide)
peptide: YCEGHSLEYMAKCL
notes: as for B1
B13: Phage-779 (peptide)
peptide: YCEGHLPEYMMKCL
notes: as for B1
B14: Phage-783 (peptide)
peptide: YCDGHSALYMSKCL
notes: as for B1

Assays:
[1] = molecular target: T1, Anti-CD28 Fab (SEQ ID NOs: 696, 697); assay: phage binding ELISA on anti-CD28 Fab plate; competitor: CD28 antigen pre-incubated in the wells
T1 construct: The Fab was biotinylated and captured on neutravidin coated plates in the phage ELISA
T1 sequence (VH, as listed by the source, chain 1 of 2): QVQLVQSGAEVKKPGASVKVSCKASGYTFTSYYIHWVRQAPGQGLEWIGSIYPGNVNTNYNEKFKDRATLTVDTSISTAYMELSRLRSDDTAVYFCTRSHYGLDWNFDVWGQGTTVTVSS
T1 sequence (VL, as listed by the source, chain 2 of 2): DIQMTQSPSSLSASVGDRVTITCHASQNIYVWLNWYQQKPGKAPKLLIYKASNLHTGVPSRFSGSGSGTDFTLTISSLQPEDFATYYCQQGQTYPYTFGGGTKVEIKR
Description: (§1) After panning, phage infected bacteria were plated out and colonies picked into 96 well blocks. Clonal phage was then amplified and separated from bacterial cells via centrifugation.
(§2) Clonal phage were harvested as crude supematants and screened via standard ELISAs. […] Prior to the addition of clonal phage, wells were incubated with blocking buffer and CD28 antigen or blocking buffer alone. Without washing or aspirating, clonal phage supematants were then added to the wells and incubated for a short time. Wells were then washed followed by detection of bound phage using a horse radish conjugated anti-M13 antibody. Clonal phage of interest were then sent for sequence analysis.

[2] = molecular target: T1, Anti-CD28 Fab (SEQ ID NOs: 696, 697); assay: phage binding ELISA; biotinylated anti-CD28 Fab on neutravidin plate, bound phage detected with anti-M13 HRP;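 further: crude supernatants of clonal phage screened, wells pretreated with blocking buffer with or without CD28 antigen before brief phage incubation, washed, then bound phage detected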
Description: as §1, §2

[3] = molecular target: T2, Anti-CD28 Fab (SEQ ID NOs: 696, 697); assay: phage ELISA; biotinylated anti-CD28 Fab on neutravidin plate, bound phage detected with anti-M13 HRP antibody
T2 construct: Biotinylated Fab captured on neutravidin coated plates in the phage ELISA
T2 sequence (VH, as listed by the source, chain 1 of 2): as the sequence (VH, as listed by the source, chain 1 of 2) above
T2 sequence (VL, as listed by the source, chain 2 of 2): as the sequence (VL, as listed by the source, chain 2 of 2) above
Description: as §1, §2

[4] = molecular target: T2, Anti-CD28 Fab (SEQ ID NOs: 696, 697); assay: phage ELISA on captured anti-CD28 Fab; competitor CD28 antigen pre-incubated in the wells;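 further: clonal phage supernatants added to wells preloaded with CD28 antigen in blocking buffer, control wells buffer only, bound phage read via HRP-linked anti-M13 antibody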
Description: as §1, §2

[5] = molecular target: T3, Anti-CD28 Fab (SEQ ID NOs: 696, 697); assay: phage ELISA; Fab-coated wells pre-incubated with CD28 antigen as competitor, anti-M13 HRP detection;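 further: crude clonal phage supernatants screened by ELISA, comparing wells pre-treated with CD28 antigen in blocker against wells given blocker only, bound phage read via HRP-linked anti-M13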
T3 construct: In the phage ELISA the Fab was biotinylated and captured on neutravidin coated plates
T3 sequence (VH, as listed by the source, chain 1 of 2): as the sequence (VH, as listed by the source, chain 1 of 2) above
T3 sequence (VL, as listed by the source, chain 2 of 2): as the sequence (VL, as listed by the source, chain 2 of 2) above
Description: as §1, §2

[6] = molecular target: T3, Anti-CD28 Fab (SEQ ID NOs: 696, 697); assay: phage ELISA; biotinylated anti-CD28 Fab on neutravidin plate, clonal phage supernatant, anti-M13 HRP detection;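 further: crude supernatants of single phage clones picked after panning were screened for binding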
[7] = molecular target: T4, Anti-CD28 Fab (SEQ ID NOs: 696, 697); assay: phage ELISA on anti-CD28 Fab pre-incubated with CD28 antigen as competitor, anti-M13 HRP detection
T4 construct: In the phage ELISA the Fab was biotinylated and captured on neutravidin coated plates
T4 sequence (VH, as listed by the source, chain 1 of 2): as the sequence (VH, as listed by the source, chain 1 of 2) above
T4 sequence (VL, as listed by the source, chain 2 of 2): as the sequence (VL, as listed by the source, chain 2 of 2) above

[8] = molecular target: T4, Anti-CD28 Fab (SEQ ID NOs: 696, 697); assay: phage ELISA; biotinylated anti-CD28 Fab on neutravidin plate, clonal phage supernatant, anti-M13 HRP detection; remark: listed apart in the source;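 further: crude supernatants of single phage clones picked after panning were screened for binding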

| Binder | Anti-CD28 Fab signal in the presence of CD28 [1] | Anti-CD28 Fab (SEQ ID NOs: 696, 697) signal [2] | Anti-CD28 Fab signal (phage binding ELISA) [3] | Anti-CD28 Fab signal in the presence of CD28 (phage binding ELISA) [4] | Phage binding ELISA, Anti-CD28 Fab signal in the presence of CD28 [7] | Phage binding ELISA, Anti-CD28 Fab signal [8] | other results |
| --- | --- | --- | --- | --- | --- | --- | --- |
| YCEGHSSEYMEKCL (Tested as clonal phage supernatant) [Phage-752] | 0.06 | 1.91 |  |  |  |  |  |
| B1 |  |  | 1.88 | 0.08 |  |  |  |
| B2 |  |  | 1.88 | 0.11 |  |  |  |
| B3 |  |  | 1.86 | 0.06 |  |  |  |
| YCDGHSKEYMHKCL (Tested as clonal phage supernatant) [Phage-757] | 0.07 | 1.9 |  |  |  |  |  |
| B4 |  |  |  |  |  |  | Anti-CD28 Fab signal in the presence of CD28 (phage binding ELISA) [5]: 0.06; Anti-CD28 Fab signal (phage binding ELISA) [6]: 1.91 |
| B5 |  |  | 1.87 | 0.07 |  |  |  |
| YCEGHSEEYMSKCL (Tested as clonal phage supernatant) [Phage-754] | 0.07 | 1.91 |  |  |  |  |  |
| B6 |  |  | 1.87 | 0.08 |  |  |  |
| YCEGHSPEYMWKCL (Tested as clonal phage supernatant) [Phage-771] |  |  |  |  | 0.09 | 1.89 |  |
| B7 |  |  | 1.87 | 0.06 |  |  |  |
| YCDGHLPEYMGKCL (Tested as clonal phage supernatant) [Phage-766] |  |  |  |  | 0.11 | 1.89 |  |
| YCAGHLEEYMDKCL (Tested as clonal phage supernatant) [Phage-761] | 0.06 | 1.9 |  |  |  |  |  |
| B8 |  |  | 1.86 | 0.08 |  |  |  |
| YCDGHLKEYMAKCL (Tested as clonal phage supernatant) [Phage-764] |  |  |  |  | 0.07 | 1.9 |  |
| YCAGHLPQYIAKCL (Tested as clonal phage supernatant) [Phage-763] |  |  |  |  | 0.09 | 1.9 |  |
| YCDGHAEEYMSKCL (Tested as clonal phage supernatant) [Phage-759] | 0.09 | 1.9 |  |  |  |  |  |
| YCAGHAPQYMEKCL (Tested as clonal phage supernatant) [Phage-762] |  |  |  |  | 0.08 | 1.9 |  |
| B9 |  |  | 1.87 | 0.09 |  |  |  |
| YCDGHSPEYMPKCL (Tested as clonal phage supernatant) [Phage-769] |  |  |  |  | 0.08 | 1.89 |  |

| Binder | Anti-CD28 Fab signal in the presence of CD28 [1] | Anti-CD28 Fab (SEQ ID NOs: 696, 697) signal [2] | Anti-CD28 Fab signal (phage binding ELISA) [3] | Anti-CD28 Fab signal in the presence of CD28 (phage binding ELISA) [4] | Phage binding ELISA, Anti-CD28 Fab signal in the presence of CD28 [7] | Phage binding ELISA, Anti-CD28 Fab signal [8] | other results |
| --- | --- | --- | --- | --- | --- | --- | --- |
| YCDGHLKEYQEKCL (Tested as clonal phage supernatant) [Phage-749] | 0.09 | 1.91 |  |  |  |  |  |
| B10 |  |  | 1.88 | 0.08 |  |  |  |
| YCEGHIPEYMAKCL (Tested as clonal phage supernatant) [Phage-768] |  |  |  |  | 0.06 | 1.89 |  |
| YCDGHVEEYLYKCL (Tested as clonal phage supernatant) [Phage-760] | 0.06 | 1.9 |  |  |  |  |  |
| YCEGHLAVYMQKCL (Tested as clonal phage supernatant) [Phage-751] | 0.1 | 1.91 |  |  |  |  |  |
| YCEGHLAQYMWKCL (Tested as clonal phage supernatant) [Phage-750] | 0.12 | 1.91 |  |  |  |  |  |
| B11 |  |  | 1.88 | 0.07 |  |  |  |
| B12 |  |  | 1.88 | 0.08 |  |  |  |
| YCDGHLDIYLAKCL (Tested as clonal phage supernatant) [Phage-753] | 0.08 | 1.91 |  |  |  |  |  |
| YCDGHEPQYLEKCL (Tested as clonal phage supernatant) [Phage-758] | 0.08 | 1.9 |  |  |  |  |  |
| B13 |  |  | 1.88 | 0.27 |  |  |  |
| YCDGHLAEYMPKCL (Tested as clonal phage supernatant) [Phage-770] |  |  |  |  | 0.07 | 1.89 |  |
| B14 |  |  | 1.87 | 0.08 |  |  |  |
| YCDGHSQEYMWKCL (Tested as clonal phage supernatant) [Phage-755] | 0.09 | 1.9 |  |  |  |  |  |
| YCEGHLQEYMEKCL (Tested as clonal phage supernatant) [Phage-767] |  |  |  |  | 0.1 | 1.89 |  |
| YCDGHRPEYMEKCL (Tested as clonal phage supernatant) [Phage-765] |  |  |  |  | 0.06 | 1.9 |  |
| YCEGHVAEYMLKCL (Tested as clonal phage supernatant) [Phage-773] |  |  |  |  | 0.05 | 1.88 |  |
| YCEGHLSEYMSKCL (Tested as clonal phage supernatant) [Phage-774] |  |  |  |  | 0.09 | 1.88 |  |
| YCDGHAPEYMKKCL (Tested as clonal phage supernatant) [Phage-756] | 0.06 | 1.9 |  |  |  |  |  |
| YCDGHIDEYLQKCL (Tested as clonal phage supernatant) [Phage-772] |  |  |  |  | 0.06 | 1.88 |  |
